The text below walks through data of the supplement of paper PMC12764529.

Series [1] is described as follows: folding stability dG unfold from trypsin proteolysis; higher = more stable. In a few lines:
(§1)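 Digests were run with trypsin and chymotrypsin at 11 concentrations in threefold dilutions, plus a no-protease condition, on designed mini-proteins in a PA-tagged cDNA display construct. The mini-proteins were under 80 residues, had no cysteine, and were kept only when AlphaFold2 dimer inter-PAE was above 15. After sequencing, Bayesian fitting of the counts gave K50, from which unfolding free energy was derived against a sequence-predicted unfolded-state K50 and a shared folded-state K50, per protease or combined.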

Series [2] is described as follows: folding stability dG unfold from chymotrypsin proteolysis; higher = more stable. In a few lines: as §1
Series [3] can be described thus: folding stability dG unfold (combined trypsin and chymotrypsin); higher = more stable. In a few lines: as §1

± gives the half width of the 95% confidence interval.

Regarding “SAGGSAGGSAGGSPNIYYTSGPFALVVTLPNGTKIVIPGSNIENLKNYNLISVEVVSTDSAGGSAGGSAGGS [r4_348_TrMRF]”, the “folding stability dG unfold” value amounted to 0.528 ± 0.065 kcal/mol in series [1], 1.81 ± 0.1 kcal/mol in series [2] and 1.4 ± 0.15 kcal/mol in series [3].

For “SAGGSAGGSAGGSPPMPMRIDEVEYDPPNGRYEITVEPDNGNPQTITMPPGNIDEAYIVSAGGSAGGSAGGS [r4_51_TrROS]”, the “folding stability dG unfold” value in series [1] turned out to be 1.47 ± 0.12 kcal/mol; in series [2], 0.978 ± 0.042 kcal/mol; in series [3], 1.15 ± 0.16 kcal/mol.

On to “SAGGSAGGSAGGSPSPLGKTRPALPASPVLKVPVTLPDDSLLTVYYDPLTGSLVVESYSSAGGSAGGSAGGS [r4_305_TrMRF]”, for which the “folding stability dG unfold” value in series [1] is 0.326 ± 0.026 kcal/mol; in series [2], 0.414 ± 0.12 kcal/mol; in series [3], 0.467 ± 0.07 kcal/mol.

As to “SAGGSAGGSAGGSPVEIKLKELPDGVLVAEATFTLENGETVKIKAVYDKKTKKLHFELVSAGGSAGGSAGGS [r4_13_TrROS_Hall]”, the “folding stability dG unfold” value in series [1] worked out at 2.15 ± 0.086 kcal/mol; in series [2], 3.5 ± 0.085 kcal/mol; in series [3] it was 3.09 ± 0.098 kcal/mol.

Take “SAGGSAGGSAGGSPYVQIRFEIPVWKFKPGGWEPVNPMPIPIWVPADDPPAAKDIAEEISAGGSAGGSAGGS [r4_153_TrROS]”: the “folding stability dG unfold” value in series [1] is 0.724 ± 0.07 kcal/mol; in series [2] it was 0.839 ± 0.18 kcal/mol; in series [3] it was 0.849 ± 0.09 kcal/mol.

Consider “SAGGSAGGSAGGSRTIYEPVPPDVAGTRLITFTSPDSEPLSTRTVSVTPVPGGRGAVILGSAGGSAGGSAGG [r7_64_JUSTAS]”, for which the “folding stability dG unfold” value was -0.735 ± 0.44 kcal/mol in series [1], -0.918 ± 0.73 kcal/mol in series [2] and -0.599 ± 0.23 kcal/mol in series [3].

In the case of “SAGGSAGGSAGGSSAKDILDELKGITFFHPNGRRYRITDVEIEPHGDGWVLSIEMEPYPSAGGSAGGSAGGS [r4_299_TrROS]”, the “folding stability dG unfold” value in series [1] came out at 2.05 ± 0.057 kcal/mol; in series [2] it was 3.05 ± 0.034 kcal/mol; in series [3], 2.7 ± 0.059 kcal/mol.

Take “SAGGSAGGSAGGSSGTSVSTEVSSSPVVTKTEYTKLDDGWSTTTTVVSTLPNALAPELTTSAGGSAGGSAGG [r7_845_JUSTAS]”: the “folding stability dG unfold” value in series [1] was found to be 1.06 ± 0.082 kcal/mol; in series [2], 0.255 ± 0.024 kcal/mol; in series [3], 0.727 ± 0.079 kcal/mol.

For the sequence “SAGGSAGGSAGGSSIEELRRSPEVEVEVSTEKLPNGKTVTTVTLTPPDGVPTTIVLPEGSAGGSAGGSAGGS [r4_70_JUSTAS]”, the results for the “folding stability dG unfold” value in series [1], in series [2] and in series [3] were 0.266 ± 0.075 kcal/mol, 1.17 ± 0.041 kcal/mol and 0.978 ± 0.14 kcal/mol, respectively.

“SAGGSAGGSAGGSSITIEEEGGKLRITVTNENGEKSEFEFPPGAKITLPEGVKLELEKESAGGSAGGSAGGS [r4_447_TrROS_Hall]”: the “folding stability dG unfold” value in series [1] was found to be 0.549 ± 0.082 kcal/mol; in series [2], 1.13 ± 0.019 kcal/mol; in series [3] it was 0.84 ± 0.073 kcal/mol.

Consider “SAGGSAGGSAGGSSLYVPGKGYIVERDEAKGYLVIKPIEPDGIVPDAEVFYKPPSVPLISAGGSAGGSAGGS [r4_409_JUSTAS]”, for which the “folding stability dG unfold” value was -0.879 ± 0.22 kcal/mol in series [1], -0.102 ± 0.43 kcal/mol in series [2] and -0.271 ± 0.19 kcal/mol in series [3].

For “SAGGSAGGSAGGSSMTIEEQKEKIKKEVPLGKSVTIEYPDKTVTLTIDPKSGKITVTISSAGGSAGGSAGGS [r4_150_JUSTAS]”, the results for the “folding stability dG unfold” value in series [1], in series [2] and in series [3] were 0.61 ± 0.079 kcal/mol, 1.44 ± 0.021 kcal/mol and 1.17 ± 0.12 kcal/mol, respectively.

In the case of “SAGGSAGGSAGGSSMTLVTEETELPSPLRKVTKYTIDPKNPGKITSETTWYDPEGKPLGSAGGSAGGSAGGS [r4_297_JUSTAS]”, the “folding stability dG unfold” value was -0.441 ± 0.33 kcal/mol in series [1], 0.362 ± 0.17 kcal/mol in series [2] and 0.0774 ± 0.17 kcal/mol in series [3].

As for “SAGGSAGGSAGGSSMVFELDGVRIVVTEDEVVFYPPETGKPVVLPMSNPEVQELIKELVSAGGSAGGSAGGS [r4_353_TrMRF]”, the “folding stability dG unfold” value is 1.87 ± 0.054 kcal/mol in series [1], 1.78 ± 0.039 kcal/mol in series [2] and 1.82 ± 0.083 kcal/mol in series [3].

For the sequence “SAGGSAGGSAGGSSTILIPSSTSEEYAESLAKELKKKGNVKTSFDPSTGVLVLTLPGGSSSAGGSAGGSAGG [r7_219_JUSTAS]”, the results for the “folding stability dG unfold” value in series [1], in series [2] and in series [3] were -0.962 ± 0.59 kcal/mol, 0.0516 ± 0.2 kcal/mol and -0.17 ± 0.21 kcal/mol, respectively.
